Here are results for one substance from patent publication US20020053092.

The subject of the data set is MeCP2 (Homo sapiens). Put plainly: cell_activity. The settings on record: 5mC at CpG (SssI); S2 cells with Sp1; methylated promoter alone repressed 3-fold; binding inferred from repression.

cyclin A1 promoter, SssI methylated registered an activity (fold repression) of 12.
